Laboratory results: article PMC9352680, “A comprehensive thermodynamic model for RNA binding by the Saccharomyces cerevisiae Pumilio protein PUF4”

Target: T1, PUF4 RNA-binding domain (Saccharomyces cerevisiae, UniProt P25339 537-888)
T1 sequence: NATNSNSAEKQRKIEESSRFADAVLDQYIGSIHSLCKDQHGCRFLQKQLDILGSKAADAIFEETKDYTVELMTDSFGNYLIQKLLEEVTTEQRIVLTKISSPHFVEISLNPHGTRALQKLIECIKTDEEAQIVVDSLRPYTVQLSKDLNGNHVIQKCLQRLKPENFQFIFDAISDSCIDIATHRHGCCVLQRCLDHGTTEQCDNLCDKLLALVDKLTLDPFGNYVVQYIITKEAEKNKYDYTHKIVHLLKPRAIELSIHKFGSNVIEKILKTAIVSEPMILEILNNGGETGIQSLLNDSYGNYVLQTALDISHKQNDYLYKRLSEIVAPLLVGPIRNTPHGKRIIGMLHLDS
Test: Mg; RNA-MaP; 20 mM Na-HEPES pH 7.4, 30 mM KOAc, 0.75 mM MgCl2, 0.1% Tween-20, 5% glycerol, 0.1 mg/mL BSA, 2 mM DTT; 25 C; 0.0125-409.6 nM protein
Settings: tags: N-His6-TEV cleaved; C-SNAP kept, Cy3B-labelled; label: tethered on chip by stalled RNA polymerase

| Binder | Kd [nM] |
| --- | --- |
| UCUCUUGAUAUAUAUAAUUCUCUU (ssRNA) [Id_ii_S1_P3E.3_K3.2_C3.2_[C-2G]_[T-1A]_H3.2_A3.1_F3.1_T3.2_[T9A]_[A10T]] | 1040 |
| UCUCUUGUUAUAUAUAGUUCUCUU (ssRNA) [Id_ii_S1_P3E.3_K3.2_C3.2_[C-2G]_H3.2_A3.1_F3.1_T3.2_[T9G]_[A10T]] | 12.1 |
| UCUCUUGUUAUAUAUACGUCUCUU (ssRNA) [Id_ii_S1_P3E.3_K3.2_C3.2_[C-2G]_H3.2_A3.1_F3.1_T3.2_[T9C]_[A10G]] | 55.2 |
| UCUCUUGUUAUAUAUACCUCUCUU (ssRNA) [Id_ii_S1_P3E.3_K3.2_C3.2_[C-2G]_H3.2_A3.1_F3.1_T3.2_[T9C]_[A10C]] | 35.9 |
| UCUCUUGUUAUAUAUACUUCUCUU (ssRNA) [Id_ii_S1_P3E.3_K3.2_C3.2_[C-2G]_H3.2_A3.1_F3.1_T3.2_[T9C]_[A10T]] | 51.5 |
| UCUCUUGUUAUAUAUAAUUCUCUU (ssRNA) [Id_ii_S1_P3E.3_K3.2_C3.2_[C-2G]_H3.2_A3.1_F3.1_T3.2_[T9A]_[A10T]] | 44.6 |
| UCUCUUGUUAUAUAUAAAUCUCUU (ssRNA) [Id_ii_S1_P3E.3_K3.2_C3.2_[C-2G]_H3.2_A3.1_F3.1_T3.2_[T9A]] | 50 |
| UCUCUUGUUAUAUAUAUGUCUCUU (ssRNA) [Id_ii_S1_P3E.3_K3.2_C3.2_[C-2G]_H3.2_A3.1_F3.1_T3.2_[A10G]] | 46.3 |
| UCUCUUAGUAAAUUAUCUCUU (ssRNA) [Ib_S1_P4E.1_K4.1_C4.1_H4.1_[T1A]_A4.1_[T5A]_F4.1_T4.1] | 491 |
| UCUCUUGUUAUAUAUAUCUCUCUU (ssRNA) [Id_ii_S1_P3E.3_K3.2_C3.2_[C-2G]_H3.2_A3.1_F3.1_T3.2_[A10C]] | 24.8 |
| UCUCUUGUUAUAUAUAUAUCUCUU (ssRNA) [Id_ii_S1_P3E.3_K3.2_C3.2_[C-2G]_H3.2_A3.1_F3.1_T3.2] | 41.1 |
| UCUCUUUGUAUAUAUAGCUCUCUU (ssRNA) [Id_ii_S1_P3E.3_K3.2_C3.2_[C-2T]_[T-1G]_H3.2_A3.1_F3.1_T3.2_[T9G]_[A10C]] | 3.66 |
| UCUCUUUGUAUAUAUAGUUCUCUU (ssRNA) [Id_ii_S1_P3E.3_K3.2_C3.2_[C-2T]_[T-1G]_H3.2_A3.1_F3.1_T3.2_[T9G]_[A10T]] | 2.33 |
| UCUCUUUGUAUAUAUACCUCUCUU (ssRNA) [Id_ii_S1_P3E.3_K3.2_C3.2_[C-2T]_[T-1G]_H3.2_A3.1_F3.1_T3.2_[T9C]_[A10C]] | 10 |
| UCUCUUUGUAUAUAUAAGUCUCUU (ssRNA) [Id_ii_S1_P3E.3_K3.2_C3.2_[C-2T]_[T-1G]_H3.2_A3.1_F3.1_T3.2_[T9A]_[A10G]] | 8.25 |
| UCUCUUUGUAUAUAUAACUCUCUU (ssRNA) [Id_ii_S1_P3E.3_K3.2_C3.2_[C-2T]_[T-1G]_H3.2_A3.1_F3.1_T3.2_[T9A]_[A10C]] | 4.91 |
| UCUCUUUGUAUAUAUAAUUCUCUU (ssRNA) [Id_ii_S1_P3E.3_K3.2_C3.2_[C-2T]_[T-1G]_H3.2_A3.1_F3.1_T3.2_[T9A]_[A10T]] | 8.44 |
| UCUCUUUGUAUAUAUAUGUCUCUU (ssRNA) [Id_ii_S1_P3E.3_K3.2_C3.2_[C-2T]_[T-1G]_H3.2_A3.1_F3.1_T3.2_[A10G]] | 4.85 |
| UCUCUUUGUAUAUAUAUCUCUCUU (ssRNA) [Id_ii_S1_P3E.3_K3.2_C3.2_[C-2T]_[T-1G]_H3.2_A3.1_F3.1_T3.2_[A10C]] | 3.36 |
| UCUCUUCGUAUGUUAUCUCUU (ssRNA) [Ib_S1_P4E.1_K4.1_C4.1_H4.1_[T1C]_A4.1_[A6G]_F4.1_T4.1] | > 2300 |
| UCUCUUUGUAUAUAUAUUUCUCUU (ssRNA) [Id_ii_S1_P3E.3_K3.2_C3.2_[C-2T]_[T-1G]_H3.2_A3.1_F3.1_T3.2_[A10T]] | 5 |
| UCUCUUUCUAUAUAUAGCUCUCUU (ssRNA) [Id_ii_S1_P3E.3_K3.2_C3.2_[C-2T]_[T-1C]_H3.2_A3.1_F3.1_T3.2_[T9G]_[A10C]] | 620 |
| UCUCUUUCUAUAUAUAGUUCUCUU (ssRNA) [Id_ii_S1_P3E.3_K3.2_C3.2_[C-2T]_[T-1C]_H3.2_A3.1_F3.1_T3.2_[T9G]_[A10T]] | 771 |
| UCUCUUUCUAUAUAUACGUCUCUU (ssRNA) [Id_ii_S1_P3E.3_K3.2_C3.2_[C-2T]_[T-1C]_H3.2_A3.1_F3.1_T3.2_[T9C]_[A10G]] | 1450 |
| UCUCUUUCUAUAUAUACCUCUCUU (ssRNA) [Id_ii_S1_P3E.3_K3.2_C3.2_[C-2T]_[T-1C]_H3.2_A3.1_F3.1_T3.2_[T9C]_[A10C]] | 1390 |

| Binder | Kd [nM] |
| --- | --- |
| UCUCUUUCUAUAUAUACAUCUCUU (ssRNA) [Id_ii_S1_P3E.3_K3.2_C3.2_[C-2T]_[T-1C]_H3.2_A3.1_F3.1_T3.2_[T9C]] | 1030 |
| UCUCUUUCUAUAUAUAACUCUCUU (ssRNA) [Id_ii_S1_P3E.3_K3.2_C3.2_[C-2T]_[T-1C]_H3.2_A3.1_F3.1_T3.2_[T9A]_[A10C]] | 960 |
| UCUCUUUCUAUAUAUAAUUCUCUU (ssRNA) [Id_ii_S1_P3E.3_K3.2_C3.2_[C-2T]_[T-1C]_H3.2_A3.1_F3.1_T3.2_[T9A]_[A10T]] | 1010 |
| UCUCUUUCUAUAUAUAUGUCUCUU (ssRNA) [Id_ii_S1_P3E.3_K3.2_C3.2_[C-2T]_[T-1C]_H3.2_A3.1_F3.1_T3.2_[A10G]] | 1210 |
| UCUCUUUCUAUAUAUAUCUCUCUU (ssRNA) [Id_ii_S1_P3E.3_K3.2_C3.2_[C-2T]_[T-1C]_H3.2_A3.1_F3.1_T3.2_[A10C]] | 602 |
| UCUCUUCGUAUUUUAUCUCUU (ssRNA) [Ib_S1_P4E.1_K4.1_C4.1_H4.1_[T1C]_A4.1_[A6T]_F4.1_T4.1] | 591 |
| UCUCUUUCUAUAUAUAUUUCUCUU (ssRNA) [Id_ii_S1_P3E.3_K3.2_C3.2_[C-2T]_[T-1C]_H3.2_A3.1_F3.1_T3.2_[A10T]] | 591 |
| UCUCUUUAUAUAUAUAGCUCUCUU (ssRNA) [Id_ii_S1_P3E.3_K3.2_C3.2_[C-2T]_[T-1A]_H3.2_A3.1_F3.1_T3.2_[T9G]_[A10C]] | 148 |
| UCUCUUUAUAUAUAUAGUUCUCUU (ssRNA) [Id_ii_S1_P3E.3_K3.2_C3.2_[C-2T]_[T-1A]_H3.2_A3.1_F3.1_T3.2_[T9G]_[A10T]] | 140 |
| UCUCUUUAUAUAUAUACGUCUCUU (ssRNA) [Id_ii_S1_P3E.3_K3.2_C3.2_[C-2T]_[T-1A]_H3.2_A3.1_F3.1_T3.2_[T9C]_[A10G]] | 503 |
| UCUCUUUAUAUAUAUACUUCUCUU (ssRNA) [Id_ii_S1_P3E.3_K3.2_C3.2_[C-2T]_[T-1A]_H3.2_A3.1_F3.1_T3.2_[T9C]_[A10T]] | 172 |
| UCUCUUUAUAUAUAUACAUCUCUU (ssRNA) [Id_ii_S1_P3E.3_K3.2_C3.2_[C-2T]_[T-1A]_H3.2_A3.1_F3.1_T3.2_[T9C]] | 384 |
| UCUCUUUAUAUAUAUAAUUCUCUU (ssRNA) [Id_ii_S1_P3E.3_K3.2_C3.2_[C-2T]_[T-1A]_H3.2_A3.1_F3.1_T3.2_[T9A]_[A10T]] | 642 |
| UCUCUUUAUAUAUAUAUGUCUCUU (ssRNA) [Id_ii_S1_P3E.3_K3.2_C3.2_[C-2T]_[T-1A]_H3.2_A3.1_F3.1_T3.2_[A10G]] | 427 |
| UCUCUUUAUAUAUAUAUCUCUCUU (ssRNA) [Id_ii_S1_P3E.3_K3.2_C3.2_[C-2T]_[T-1A]_H3.2_A3.1_F3.1_T3.2_[A10C]] | 370 |
| UCUCUUUAUAUAUAUAUUUCUCUU (ssRNA) [Id_ii_S1_P3E.3_K3.2_C3.2_[C-2T]_[T-1A]_H3.2_A3.1_F3.1_T3.2_[A10T]] | 329 |
| UCUCUUUGUAUUUUAUCUCUU (ssRNA) [Ic_S1_P4E.1_K4.1_C4.1_H4.1_A4.1_[A6T]_F4.1_T4.1] | 2.46 |
| UCUCUUAGUAUGUUAUCUCUU (ssRNA) [Ib_S1_P4E.1_K4.1_C4.1_H4.1_[T1A]_A4.1_[A6G]_F4.1_T4.1] | 1080 |
| UCUCUUUUUAUAUAUAGCUCUCUU (ssRNA) [Id_ii_S1_P3E.3_K3.2_C3.2_[C-2T]_H3.2_A3.1_F3.1_T3.2_[T9G]_[A10C]] | 490 |
| UCUCUUUUUAUAUAUAGUUCUCUU (ssRNA) [Id_ii_S1_P3E.3_K3.2_C3.2_[C-2T]_H3.2_A3.1_F3.1_T3.2_[T9G]_[A10T]] | 272 |
| UCUCUUUUUAUAUAUACGUCUCUU (ssRNA) [Id_ii_S1_P3E.3_K3.2_C3.2_[C-2T]_H3.2_A3.1_F3.1_T3.2_[T9C]_[A10G]] | 1560 |
| UCUCUUUUUAUAUAUACCUCUCUU (ssRNA) [Id_ii_S1_P3E.3_K3.2_C3.2_[C-2T]_H3.2_A3.1_F3.1_T3.2_[T9C]_[A10C]] | 1430 |
| UCUCUUUUUAUAUAUACUUCUCUU (ssRNA) [Id_ii_S1_P3E.3_K3.2_C3.2_[C-2T]_H3.2_A3.1_F3.1_T3.2_[T9C]_[A10T]] | 708 |
| UCUCUUUUUAUAUAUACAUCUCUU (ssRNA) [Id_ii_S1_P3E.3_K3.2_C3.2_[C-2T]_H3.2_A3.1_F3.1_T3.2_[T9C]] | 1210 |
